In US20240279309A1 (Molecular Partners, published 2024):

Columns and labels:
Assay in all cases: cell-based or functional assay
[1] = biological target: T1, CD40 receptor on cells (HEK293 reporter cells expressing CD40; primary human B cells) (human, UniProt P25942 21-277)
[2] = biological target: T1, CD40 receptor on cells (HEK293 reporter …); remark: listed apart in the source
[3] = biological target: T1, CD40 receptor on cells (HEK293 reporter …); remark: listed apart in the source

T1 sequence (P25942 21-277): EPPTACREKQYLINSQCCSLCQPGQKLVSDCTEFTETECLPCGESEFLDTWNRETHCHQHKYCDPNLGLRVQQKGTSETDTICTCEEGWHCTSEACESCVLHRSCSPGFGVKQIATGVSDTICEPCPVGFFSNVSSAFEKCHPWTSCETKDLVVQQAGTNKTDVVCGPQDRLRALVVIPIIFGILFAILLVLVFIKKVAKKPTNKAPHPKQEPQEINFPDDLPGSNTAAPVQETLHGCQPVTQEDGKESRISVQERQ

| Binder | EC50 [nM], % CD86, human B cells with FAP-CHO, w/o HSA [1] [nM] | EC50 [nM], MFI CD86, human B cells with FAP-CHO, w/o HSA [1] [nM] | Efficacy [MFI at highest dose], MFI CD86, human B cells with FAP-CHO, w HSA [2] [MFI] | Efficacy [MFI at highest dose], MFI CD86, human B cells with FAP-CHO, w/o HSA [2] [MFI] | Efficacy at highest dose, % CD86, human B cells with FAP-CHO, w/o HSA [2] [%] | Efficacy [MFI at highest dose], MFI CD86, human B cells with WT-CHO (no FAP), w HSA [3] [MFI] | Efficacy [MFI at highest dose], MFI CD86, human B cells with WT-CHO (no FAP), w/o HSA [3] [MFI] | Efficacy at highest dose, % CD86, human B cells with WT-CHO (no FAP), w HSA [3] [%] | Efficacy at highest dose, % CD86, human B cells with WT-CHO (no FAP), w/o HSA [3] [%] | EC50 [nM], % CD86, human B cells with FAP-CHO, w HSA [1] [nM] | EC50 [nM], MFI CD86, human B cells with FAP-CHO, w HSA [1] [nM] | Efficacy at highest dose, % CD86, human B cells with FAP-CHO, w HSA [2] [%] |
| --- | --- | --- | --- | --- | --- | --- | --- | --- | --- | --- | --- | --- |
| SMA095 (SEQ ID NO: 101) (designed binder) MRGSHHHHHHGSDLGKKLLEAARAGQDDEVRELLKAGADVNAKDYFSHTPLHLAARNGHLKIVEVLLKAGADVNAKDFAGKTPLHLAAADGHLEIVEVLLKAGADVNAQDIFGKTPADIAADAGHEDIAEVLQKAAGSPTPTPTTPTPTPTTPTPTPTGSDLGEKLLVAALYGQDDEVRELLKAGADVNAKDQWGLTPLHKAALQGHLEIVEVLLKAGADVNAKDERGHTPLHWAARFGHLEIVEVLLKAGADVNAQDQKGYTPADLAALWGHEDIAEVLQKAAGSPTPTPTTPTPTPTTPTPTPTGSDLGKKLLQAARAGQLDEVRELLKAGADVNAKDTWGFTPLHIAAESGHLEIVEVLLKAGADVNAKDVQGRTPLHIAAHSGHLEIVEVLLKAGADVNAKDFRGWTPLHLAAWSGHLEIVEILLKAGADVNAQDKSGKTPADLAARAGHQDIAEVLQKAAGSPTPTPTTPTPTPTTPTPTPTGSDLGKKLLEAARAGQDDEVRELLKAGADVNAKDYFSHTPLHLAARNGHLKIVEVLLKAGADVNAKDFAGKTPLHLAAADGHLEIVEVLLKAGADVNAQDIFGKTPADIAADAGHEDIAEVLQKAA | 89.8 | 288 | 232 | 773 | 28.7 | 306 | 299 | 13.7 | 12.5 |  |  |  |
| SMA099 (SEQ ID NO: 104) (designed binder) MRGSHHHHHHGSDLGKKLLEAARAGQDDEVRELLKAGADVNAKDYFSHTPLHLAARNGHLKIVEVLLKAGADVNAKDFAGKTPLHLAAADGHLEIVEVLLKAGADVNAQDIFGKTPADIAADAGHEDIAEVLQKAAGSPTPTPTTPTPTPTTPTPTPTGSDLGEKLLVAALYGQDDEVRELLKAGADVNAKDQWGLTPLHKAALQGHLEIVEVLLKAGADVNAKDERGHTPLHWAARFGHLEIVEVLLKAGADVNAQDQKGYTPADLAALWGHEDIAEVLQKAAGSPTPTPTTPTPTPTTPTPTPTGSDLGKKLLQAARAGQLDEVRELLKAGADVNAKDTWGFTPLHIAAESGHLEIVEVLLKAGADVNAKDVQGRTPLHIAAHSGHLEIVEVLLKAGADVNAKDFRGWTPLHLAAWSGHLEIVEILLKAGADVNAQDKSGKTPADLAARAGHQDIAEVLQKAAGSPTPTPTTPTPTPTTPTPTPTGSDLGKKLLQAARAGQLDEVRELLKAGADVNAKDTWGFTPLHIAAESGHLEIVEVLLKAGADVNAKDVQGRTPLHIAAHSGHLEIVEVLLKAGADVNAKDFRGWTPLHLAAWSGHLEIVEILLKAGADVNAQDKSGKTPADLAARAGHQDIAEVLQKAAGSPTPTPTTPTPTPTTPTPTPTGSDLGKKLLEAARAGQDDEVRELLKAGADVNAKDYFSHTPLHLAARNGHLKIVEVLLKAGADVNAKDFAGKTPLHLAAADGHLEIVEVLLKAGADVNAQDIFGKTPADIAADAGHEDIAEVLQKAA | 4.68 | 18.2 | 1720 | 4950 | 84.4 | 274 | 289 | 42.5 | 47.4 | 7.5 | 19.4 | 71.7 |
| SMA091 (SEQ ID NO: 103) (designed binder) MRGSHHHHHHGSDLGKKLLEAARAGQDDEVRELLKAGADVNAKDYFSHTPLHLAARNGHLKIVEVLLKAGADVNAKDFAGKTPLHLAAADGHLEIVEVLLKAGADVNAQDIFGKTPADIAADAGHEDIAEVLQKAAGSPTPTPTTPTPTPTTPTPTPTGSDLGEKLLVAALYGQDDEVRELLKAGADVNAKDQWGLTPLHKAALQGHLEIVEVLLKAGADVNAKDERGHTPLHWAARFGHLEIVEVLLKAGADVNAQDQKGYTPADLAALWGHEDIAEVLQKAAGSPTPTPTTPTPTPTTPTPTPTGSDLGKKLLQAARAGQLDEVRELLKAGADVNAKDTWGFTPLHIAAESGHLEIVEVLLKAGADVNAKDVQGRTPLHIAAHSGHLEIVEVLLKAGADVNAKDFRGWTPLHLAAWSGHLEIVEILLKAGADVNAQDKSGKTPADLAARAGHQDIAEVLQKAAGSPTPTPTTPTPTPTTPTPTPTGSDLGKKLLQAARAGQLDEVRELLKAGADVNAKDTWGFTPLHIAAESGHLEIVEVLLKAGADVNAKDVQGRTPLHIAAHSGHLEIVEVLLKAGADVNAKDFRGWTPLHLAAWSGHLEIVEILLKAGADVNAQDKSGKTPADLAARAGHQDIAEVLQKAA | 0.76 | 3.93 | 2980 | 6230 | 78.2 | 296 | 290 | 43.1 | 47.8 | 2.98 | 8.05 | 75.6 |
| AS579 (SEQ ID NO: 105) (designed binder) MRGSHHHHHHGSDLGKKLLEAARAGQDDEVRELLKAGADVNAKDYFSHTPLHLAARNGHLKIVEVLLKAGADVNAKDFAGKTPLHLAAADGHLEIVEVLLKAGADVNAQDIFGKTPADIAADAGHEDIAEVLQKAAGSPTPTPTTPTPTPTTPTPTPTGSDLGKKLLEAARAGQDDEVRELLKAGADVNAKDYFSHTPLHLAARNGHLKIVEVLLKAGADVNAKDFAGKTPLHLAAADGHLEIVEVLLKAGADVNAQDIFGKTPADIAADAGHEDIAEVLQKAAGSPTPTPTTPTPTPTTPTPTPTGSDLGEKLLVAALYGQDDEVRELLKAGADVNAKDQWGLTPLHKAALQGHLEIVEVLLKAGADVNAKDERGHTPLHWAARFGHLEIVEVLLKAGADVNAQDQKGYTPADLAALWGHEDIAEVLQKAAGSPTPTPTTPTPTPTTPTPTPTGSDLGKKLLQAARAGQLDEVRELLKAGADVNAKDTWGFTPLHIAAESGHLEIVEVLLKAGADVNAKDVQGRTPLHIAAHSGHLEIVEVLLKAGADVNAKDFRGWTPLHLAAWSGHLEIVEILLKAGADVNAQDKSGKTPADLAARAGHQDIAEVLQKAAGSPTPTPTTPTPTPTTPTPTPTGSDLGKKLLQAARAGQLDEVRELLKAGADVNAKDTWGFTPLHIAAESGHLEIVEVLLKAGADVNAKDVQGRTPLHIAAHSGHLEIVEVLLKAGADVNAKDFRGWTPLHLAAWSGHLEIVEILLKAGADVNAQDKSGKTPADLAARAGHQDIAEVLQKAA | 2.27 | 10 | 1780 | 4860 | 83 | 242 | 252 | 40.1 | 42 | 10.2 | 23.1 | 71.9 |
| SMA105 (SEQ ID NO: 106) (designed binder) MRGSHHHHHHGSDLGEKLLVAALYGQDDEVRELLKAGADVNAKDQWGLTPLHKAALQGHLEIVEVLLKAGADVNAKDERGHTPLHWAARFGHLEIVEVLLKAGADVNAQDQKGYTPADLAALWGHEDIAEVLQKAAGSPTPTPTTPTPTPTTPTPTPTGSDLGKKLLQAARAGQLDEVRELLKAGADVNAKDTWGFTPLHIAAESGHLEIVEVLLKAGADVNAKDVQGRTPLHIAAHSGHLEIVEVLLKAGADVNAKDFRGWTPLHLAAWSGHLEIVEILLKAGADVNAQDKSGKTPADLAARAGHQDIAEVLQKAAGSPTPTPTTPTPTPTTPTPTPTGSDLGKKLLQAARAGQLDEVRELLKAGADVNAKDTWGFTPLHIAAESGHLEIVEVLLKAGADVNAKDVQGRTPLHIAAHSGHLEIVEVLLKAGADVNAKDFRGWTPLHLAAWSGHLEIVEILLKAGADVNAQDKSGKTPADLAARAGHQDIAEVLQKAAGSPTPTPTTPTPTPTTPTPTPTGSDLGKKLLQAARAGQLDEVRELLKAGADVNAKDTWGFTPLHIAAESGHLEIVEVLLKAGADVNAKDVQGRTPLHIAAHSGHLEIVEVLLKAGADVNAKDFRGWTPLHLAAWSGHLEIVEILLKAGADVNAQDKSGKTPADLAARAGHQDIAEVLQKAA | 0.11 | 0.33 |  | 5560 | 87.2 |  | 672 |  | 69.2 |  |  |  |
